Data on six molecules can be found in PMC4788467 (Leukemia, 2015).

In assay [1] the target is biotinylated soluble HLA-A2/WT1_(126) (…) complex (Homo sapiens, HLA-A*02:01, biotin (the complex is biotinylated; site not stated)). The assay is described as follows: SPR. In general terms: Surface plasmon resonance follows binding to a sensor surface in real time, without labels.
Assay [2] deals with T1, WT1 126-134 (RMFPNAPYL) peptide alone (human).
T1 chain: RMFPNAPYL
The assay is described as follows: ELISA.

Assay [3] has as its target HLA-A2/WT1 187-195 (…) monomer (Homo sapiens, HLA-A*02:01, biotin (the complex is biotinylated; site not stated)). The assay is described as follows: ELISA. For orientation: In an ELISA, binding on a coated surface is turned into a signal by an enzyme label.
The target in assay [4] is HLA-A2/WT1 235-243 (…) monomer (Homo sapiens, HLA-A*02:01, biotin (the complex is biotinylated; site not stated)). The assay is described as follows: ELISA.

B1: S3.6 scFv (scFv, V domains shown)
VH: EVQLLESGGGLVQPGGSLRLSCAASGFTFSSYAMSWVRQAPGKGLEWVSLIDPWGQETLYADSVKGRFTISRDNSKNTLYLQMNSLRAEDTAVYYCAKLTGRFDYWGQGTLVTVSS
VL: DIQMTQSPSSLSASVGDRVTITCRASQSISNYLNWYQQKPGKAPKLLIYSASQLQSGVPSRFSGSGSGTVFTLTISSLQPEDFATYYCQQGPGTPNTFGQGTKVEIK
In assay [1], B1 returned a Kd of 14.1 nM, a koff of 0.00177 s⁻¹ and an on-rate (kon) of 126000 M⁻¹ s⁻¹.

B2: S3.3 scFv (scFv, V domains shown)
VH: EVQLLESGGGLVQPGGSLRLSCAASGFTFSSYAMSWVRQAPGKGLEWVSLIDPWGQETLYADSVKGRFTISRDNSKNTLYLQMNSLRAEDTAVYYCAKLTGRFDYWGQGTLVTVSS
VL: NIQMTQSPSSLSASVGDRVTITCRASQSISSYLNWYQQKPGKAPKLLIYSASLLQSGVPSRFSGNGSGTDFTLTISSLQPEDFATYYCQQGPGTPNTFGQGTKVEIK
Turning to B2, in assay [1], the koff was found to be 5.35e-05 s⁻¹ and the kon is 22000 M⁻¹ s⁻¹.

B3: S3.1 scFv (scFv, V domains shown)
VH: EVQLLESGGGLVQPGGSLRLSCAASGFTFSSYAMSWVRQAPGKGLEWVSLIDPWGQETLYADSVKGRFTISRDNSKNTLYLQMNSLGAEDTAVYYCAKLTGRFDYWGQGTLVTVSS
VL: DIQMTQSPSSLSASVGDRVTITCRASQSISSYLNWYQQKPGKAPKLLIYSASQLQSGVPSRFSGSGSGTDFTLTISNLQPEDFATYYCQQGPGTPNTFGQGTKVEIK
In assay [1], B3 returned a Kd of 12.9 nM, a koff of 0.00191 s⁻¹ and a kon of 148000 M⁻¹ s⁻¹.

B4: Q2L scFv (scFv, V domains shown)
VH: EVQLLESGGGLVQPGGSLRLSCAASGFTFSSYAMSWVRQAPGKGLEWVSLIDPWGQETLYADSVKGRFTISRDNSKNTLYLQMNSLRAEDTAVYYCAKLTGRFDYWGQGTLVTVSS
VL: DIQMTQSPSSLSASVGDRVTITCRASQSISSYLNWYQQKPGKAPKLLIYSASLLQSGVPSRFSGSGSGTDFTLTISSLQPEDFATYYCQQGPGTPNTFGQGTKVEIK
On to B4, for which the binding result in assay [2], in assay [3] and in assay [4] was “no binding” in each case. The Kd in assay [1] stood at 3.08 nM. The molecule also returned a koff in assay [1] of 0.000355 s⁻¹. The kon in assay [1] was 115000 M⁻¹ s⁻¹.

B5: Q1L scFv (scFv, V domains shown)
VH: EVQLLESGGGLVQPGGSLRLSCAASGFTFSSYAMSWVRQAPGKGLEWVSLIDPWGQETLYADSVKGRFTISRDNSKNTLYLQMNSLRAEDTAVYYCAKLTGRFDYWGQGTLVTVSS
VL: DIQMTQSPSSLSASVGDRVTITCRASQSISSYLNWYQQKPGKAPKLLIYSASQLQSGVPSRFSGSGSGTDFTLTISSLQPEDFATYYCQQGPGTPNTFGQGTKVEIK
With B5, in assay [1], the Kd came to 58.3 nM and the kon was determined as 94300 M⁻¹ s⁻¹.

B6: Q2L scFv-Fc (Fc fusion)
VH: EVQLLESGGGLVQPGGSLRLSCAASGFTFSSYAMSWVRQAPGKGLEWVSLIDPWGQETLYADSVKGRFTISRDNSKNTLYLQMNSLRAEDTAVYYCAKLTGRFDYWGQGTLVTVSS
VL: DIQMTQSPSSLSASVGDRVTITCRASQSISSYLNWYQQKPGKAPKLLIYSASLLQSGVPSRFSGSGSGTDFTLTISSLQPEDFATYYCQQGPGTPNTFGQGTKVEIK
With B6, the binding result in assay [2] is “no binding”. Also, in assay [1], binding was put at a Kd of 0.002 nM, the koff was found to be 1.15e-06 s⁻¹ and the kon came out at 484000 M⁻¹ s⁻¹. For the same molecule, the binding result in assay [3] was “no binding”. Also, the binding result in assay [4] was “no binding”.

A word on the Kd: it is the constant that tells how readily two partners part at equilibrium. Lower therefore signals a tighter complex. A word on the koff: it is the rate constant with which the complex falls apart. Low values mean slow dissociation, high ones fast dissociation. By kon is commonly meant the rate constant with which the complex forms. A higher kon goes with faster complex formation.
